Experimental data as given in IntAct's records for PubMed 19559006.

B1: Kinesin-like protein KIF21A (Homo sapiens), Q7Z4S6 (parent)
chain: MLGAPDESSVRVAVRIRPQLAKEKIEGCHICTSVTPGEPQVFLGKDKAFTFDYVFDIDSQQEQIYIQCIEKLIEGCFEGYNATVFAYGQTGAGKTYTMGTGFDVNIVEEELGIISRAVKHLFKSIEEKKHIAIKNGLPAPDFKVNAQFLELYNEEVLDLFDTTRDIDAKSKKSNIRIHEDSTGGIYTVGVTTRTVNTESEMMQCLKLGALSRTTASTQMNVQSSRSHAIFTIHVCQTRVCPQIDADNATDNKIISESAQMNEFETLTAKFHFVDLAGSERLKRTGATGERAKEGISINCGLLALGNVISALGDKSKRATHVPYRDSKLTRLLQDSLGGNSQTIMIACVSPSDRDFMETLNTLKYANRARNIKNKVMVNQDRASQQINALRSEITRLQMELMEYKTGKRIIDEEGVESINDMFHENAMLQTENNNLRVRIKAMQETVDALRSRITQLVSDQANHVLARAGEGNEEISNMIHSYIKEIEDLRAKLLESEAVNENLRKNLTRATARAPYFSGSSTFSPTILSSDKETIEIIDLAKKDLEKLKRKEKRKKKRLQKLEESNREERSVAGKEDNTDTDQEKKEEKGVSERENNELEVEESQEVSDHEDEEEEEEEEEDDIDGGESSDESDSESDEKANYQADLANITCEIAIKQKLIDELENSQKRLQTLKKQYEEKLMMLQHKIRDTQLERDQVLQNLGSVESYSEEKAKKVRSEYEKKLQAMNKELQRLQAAQKEHARLLKNQSQYEKQLKKLQQDVMEMKKTKVRLMKQMKEEQEKARLTESRRNREIAQLKKDQRKRDHQLRLLEAQKRNQEVVLRRKTEEVTALRRQVRPMSDKVAGKVTRKLSSSDAPAQDTGSSAAAVETDASRTGAQQKMRIPVARVQALPTPATNGNRKKYQRKGLTGRVFISKTARMKWQLLERRVTDIIMQKMTISNMEADMNRLLKQREELTKRREKLSKRREKIVKENGEGDKNVANINEEMESLTANIDYINDSISDCQANIMQMEEAKEEGETLDVTAVINACTLTEARYLLDHFLSMGINKGLQAAQKEAQIKVLEGRLKQTEITSATQNQLLFHMLKEKAELNPELDALLGHALQDLDSVPLENVEDSTDEDAPLNSPGSEGSTLSSDLMKLCGEVKPKNKARRRTTTQMELLYADSSELASDTSTGDASLPGPLTPVAEGQEIGMNTETSGTSAREKELSPPPGLPSKIGSISRQSSLSEKKIPEPSPVTRRKAYEKAEKSKAKEQKHSDSGTSEASLSPPSSPPSRPRNELNVFNRLTVSQGNTSVQQDKSDESDSSLSEVHRSSRRGIINPFPASKGIRAFPLQCIHIAEGHTKAVLCVDSTDDLLFTGSKDRTCKVWNLVTGQEIMSLGGHPNNVVSVKYCNYTSLVFTVSTSYIKVWDIRDSAKCIRTLTSSGQVTLGDACSASTSRTVAIPSGENQINQIALNPTGTFLYAASGNAVRMWDLKRFQSTGKLTGHLGPVMCLTVDQISSGQDLIITGSKDHYIKMFDVTEGALGTVSPTHNFEPPHYDGIEALTIQGDNLFSGSRDNGIKKWDLTQKDLLQQVPNAHKDWVCALGVVPDHPVLLSGCRGGILKVWNMDTFMPVGEMKGHDSPINAICVNSTHIFTAADDRTVRIWKARNLQDGQISDTGDLGEDIASN
partner: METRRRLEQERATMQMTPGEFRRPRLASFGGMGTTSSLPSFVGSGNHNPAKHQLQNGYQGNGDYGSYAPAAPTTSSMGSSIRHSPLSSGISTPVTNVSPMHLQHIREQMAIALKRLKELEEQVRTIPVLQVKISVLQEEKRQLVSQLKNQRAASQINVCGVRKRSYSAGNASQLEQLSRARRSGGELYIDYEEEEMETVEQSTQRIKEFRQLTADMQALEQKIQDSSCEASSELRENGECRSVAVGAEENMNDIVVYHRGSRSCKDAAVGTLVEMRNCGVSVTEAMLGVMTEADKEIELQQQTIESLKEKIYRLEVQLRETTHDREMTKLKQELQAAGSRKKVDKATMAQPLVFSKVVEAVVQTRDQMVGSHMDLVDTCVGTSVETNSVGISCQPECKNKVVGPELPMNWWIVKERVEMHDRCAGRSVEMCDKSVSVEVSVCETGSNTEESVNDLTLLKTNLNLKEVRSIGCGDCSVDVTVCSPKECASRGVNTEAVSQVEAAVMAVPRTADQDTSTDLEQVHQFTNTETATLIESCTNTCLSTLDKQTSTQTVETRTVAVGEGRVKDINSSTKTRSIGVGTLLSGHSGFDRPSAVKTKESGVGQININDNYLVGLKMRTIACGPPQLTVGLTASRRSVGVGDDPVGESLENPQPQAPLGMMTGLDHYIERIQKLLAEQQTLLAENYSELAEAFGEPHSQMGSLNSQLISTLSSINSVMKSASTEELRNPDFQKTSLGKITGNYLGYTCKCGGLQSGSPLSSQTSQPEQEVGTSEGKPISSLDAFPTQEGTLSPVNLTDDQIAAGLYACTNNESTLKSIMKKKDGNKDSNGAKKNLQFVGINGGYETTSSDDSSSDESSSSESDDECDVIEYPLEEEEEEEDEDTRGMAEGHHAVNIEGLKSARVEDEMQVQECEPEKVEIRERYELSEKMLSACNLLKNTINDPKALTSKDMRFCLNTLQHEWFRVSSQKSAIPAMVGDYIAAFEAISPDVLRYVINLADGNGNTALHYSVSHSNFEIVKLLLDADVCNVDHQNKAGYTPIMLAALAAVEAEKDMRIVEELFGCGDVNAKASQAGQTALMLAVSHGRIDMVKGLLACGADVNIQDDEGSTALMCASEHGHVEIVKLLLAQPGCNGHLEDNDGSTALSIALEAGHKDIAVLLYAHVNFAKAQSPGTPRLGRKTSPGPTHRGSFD

Variants of: B1
Conditions: with KANK1, Q14678-2

effect of a mutation on the interaction	Variant
increasing interaction	M947T
increasing interaction	R954W
